We go through four molecules from patent US20200040045, “CARBOHYDRATE PRODUCING PLANT MATERIAL” (GREEN RICE SWEDEN AB, published 2020).

Series [1] has as its target SUSIBA1 (Hordeum vulgare). The experiment in a line: EMSA. Conditions: tags: overexpressed in and purified from E. coli; label: 32P; second strand printed as 3'-5' complement, annealed duplex. The procedure: (§1) Bars in (A-D)=5 μm and in (K-M)=100 μm. One-way ANOVA was used (Error bars show s.d. and **p≤0.01 between heat-killed background and living agrobacteria).
(§2) Having identified SUSIBA1 p, the potential involvement of SUSIBA1 in fructan synthesis was investigated. […] Electrophoretic mobility shift assay (EMSA) was used to study the in vitro interaction between SUSIBA1 and the promoter of 6-SFT that encodes a key enzyme in synthesis of fructan in barley. EMSA was performed as described previously using overexpressed and purified SUSIBA1 from E. coli (FIG. 8E to 8J). In accordance with the hallmark of WRKY proteins, it was shown that the […] TF bound to the W-box DNA cis-element. […] Examination of the 6-SFT promoter led to identification of two SUREa, three W-box and one SP8a element (FIG. 8E). Using different combinations of the restriction enzymes BstXI, PvulI and SpeI, the full-length promoter (fragment 1) was resolved into four fragments (fragments 2-5, FIG. 8E). […] To confirm the specificity of the binding activity, the element sequences (FIG. 8I) were engineered and the binding of SUSIBA1 was tested. […] No binding activity of SUSIBA1 to the engineered element sequences, i.e., SP8a M, W-box M and SUREa M4 also indicated the reliability of EMSA in the assay system (FIG. 8J). […]
(A gel shift assay detects complexes by their altered migration in electrophoresis.)

For series [2], the target named is SUSIBA1 (Hordeum vulgare). Nature of the series: EMSA; 0.0125-0.2 ug SUSIBA1 prevents binding of 0.2 ug SUSIBA2 to the W-box. Particulars: tags: overexpressed in and purified from E. coli; label: 32P. The procedure: (§3) The infiltrated leaves were incubated at 40 mM Suc. Two days after infiltration and incubation, qPCR analysis was performed. (C) Transcript levels of SUSIBA2 after co-infiltration of agrobacteria containing p35S:SUSIBA2 with the double-stranded decoy oligoes upon antisense inhibition of SUSIBA1. (D) Transcript levels of SUSIBA2 after infiltration of agrobacteria containing p35S:SUSIBA2 alone or the double-stranded decoy oligoes alone at 100 mM Suc. The infiltrated leaves were incubated at 100 mM Suc for two days before analysis. Significant differences are analyzed statistically between p35S:SUSIBA1 and decoy oligoes, and indicated by asterisks (**p≤0.01) in (B), and between p35:SUSIBA2 and decoy oligoes in (C), and between p35:SUSIBA2 and decoy oligoes in (D). One-way ANOVA was used (Error bars show s.d.) Three independent experiments were performed (n=3). (E) EMSA analysis of competitive activity to the W-box in the SUSIBA2 promoter between SUSIBA2 and SUSIBA1. EMSA of binding activity to the W-box of SUSIBA2 (left panel) and SUSIBA1 (middle panel) and SUSIBA2 and SUSIBA1 in competing (right panel). SUSIBA2 and SUSIBA1 were overexpressed and purified from E. coli and challenged with two oligoes. […]

The target of series [3] is SUSIBA2 (Hordeum vulgare, UniProt Q6VWJ6 SEQ:1-573). The experiment in a line: EMSA; 0.2 ug SUSIBA2; displaced by SUSIBA1. Conditions: tags: overexpressed and purified; label: 32P. The procedure: as §3
Series [4] concerns the target SUSIBA1 (Hordeum vulgare). Nature of the series: EMSA; A-stretch substitution. Particulars: tags: overexpressed in and purified from E. coli; label: 32P. The procedure: as §1, §2

Chain of SUSIBA1 (Hordeum vulgare) (Q6VWJ6 293-573): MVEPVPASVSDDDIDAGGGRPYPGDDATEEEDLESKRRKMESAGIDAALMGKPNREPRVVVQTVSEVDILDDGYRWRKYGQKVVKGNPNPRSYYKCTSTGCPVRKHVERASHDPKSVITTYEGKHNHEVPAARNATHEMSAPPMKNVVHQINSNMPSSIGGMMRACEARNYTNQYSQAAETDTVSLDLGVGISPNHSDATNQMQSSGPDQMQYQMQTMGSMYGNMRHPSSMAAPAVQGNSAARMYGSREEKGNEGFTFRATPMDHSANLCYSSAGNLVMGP
Chain of SUSIBA2 (Q6VWJ6 whole entry): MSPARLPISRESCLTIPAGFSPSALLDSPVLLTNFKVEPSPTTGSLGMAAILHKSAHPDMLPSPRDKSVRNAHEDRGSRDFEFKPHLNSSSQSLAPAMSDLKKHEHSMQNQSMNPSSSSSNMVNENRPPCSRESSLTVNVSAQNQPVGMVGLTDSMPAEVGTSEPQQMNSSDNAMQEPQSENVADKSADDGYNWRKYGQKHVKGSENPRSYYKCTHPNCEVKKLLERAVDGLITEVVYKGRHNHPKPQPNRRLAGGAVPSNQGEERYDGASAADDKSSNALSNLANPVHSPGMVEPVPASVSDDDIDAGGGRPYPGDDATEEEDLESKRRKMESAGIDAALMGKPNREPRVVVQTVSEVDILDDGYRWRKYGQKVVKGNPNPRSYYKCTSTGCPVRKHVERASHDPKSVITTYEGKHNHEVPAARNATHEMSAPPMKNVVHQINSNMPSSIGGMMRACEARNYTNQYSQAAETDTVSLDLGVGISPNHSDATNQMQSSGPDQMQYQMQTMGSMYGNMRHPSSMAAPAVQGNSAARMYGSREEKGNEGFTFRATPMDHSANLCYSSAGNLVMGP

B1: 6-SFT SP8a (dsDNA)
DNA 1: CTGTACTGTGTTTTTAGCCT
DNA 2: AGGCTAAAAACACAGTACAG
For the molecule B1, the binding result in series [1] is reported as “binds”.

B2: SUSIBA2 promoter W-box oligo (dsDNA)
DNA 1: TAGGTCGTCAATTTGACTTATATAAAATAT
DNA 2: ATATTTTATATAAGTCAAATTGACGACCTA
On to B2, for which the binding result in series [2] and in series [3] was “binds” in each case.

B3: SUREa M4 (dsDNA)
DNA 1: CAAAAAAAAAAAAAAAAAAC
DNA 2: GTTTTTTTTTTTTTTTTTTG
For the molecule B3, the binding result in series [4] is given as “no binding”.

B4: 6-SFT SUREa (dsDNA)
DNA 1: CACACATGGCACGCCAAAAC
DNA 2: GTTTTGGCGTGCCATGTGTG
In the case of B4, the binding result in series [1] was “binds”.
